Data published in the RNAGym collection of RNA variant scans (doi:10.1073/pnas.2313332121).

B1: TPR t1 (parent)
chain: GACCAAUCUGCCCUCAGAGCUCGAGAACAUCUUCGGAUGCAGAGGAGGCAGGCUUCGGUGGCGCGAUAGCGCCAACGUCCUCAACCUCCAAUGCAUCCCACCACAUGAUGAUGCCUGAAGAGCCUUGGUUUUUUG

Variants of: B1
Assay: polymerase ribozyme fitness, log enrichment relative to wild type (log ratio); higher = more active; in vitro selection for triplet polymerase activity
Procedure, shortened: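 Only genotypes with ≥10 input reads and ≥1 read per output were kept after Illumina sequencing of input and output libraries. These libraries were PCR-built, transcribed mutants of each subunit of a heterodimeric triplet polymerase ribozyme, each put through one triplicate in vitro selection round with frozen incubation at −7 °C, gel excision of extended constructs, streptavidin-bead capture and RT-PCR. Fitness is a logarithmic ratio of genotype enrichment to wild-type enrichment, from inverse-variance-weighted replicate averages, with the logarithm in base 2.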

Variant | polymerase ribozyme fitness (log ratio)
GACCAAUCUGCCCUCAGAGCUCGAGAACAUCUUCGGAUGCAGAGGAGGCAGGCUUCGGUGGCGCGAUAGCGCCAACGUCCUCAACCUCCAAUGCAACCCACCACAUGAUGAUACAUGAACAGCCUUGGUUUUUUG [U96A G113A C115A G120C] | -3.71
GACCAAUCUGCGCUCAGAGCUCGAGAACUUCUUCGGAUGCAGAGGAGGGAGGCUUCGGUGGCGCGAUAGCGCCAACGUCCUUAACCUCCAAUGCAUCCCACCACAUGAUGAUGCUUGAAGAGCCUUGGUUUUAUG [C12G A29U C49G C82U C115U U133A] | -2.06
GACCAAUCUGCCCUCAGAGCUCGAGAACAUCUUCGGAUGCAGAGGAGGCAGGCUUCGGUGGCGCGAUAGUGCCAACGUCAUCAACCUCCAAUGCAUCCCACCACAUGAUGAUGCCUGAAGAGCCUUGGUUUUUUG [C70U C80A] | -5.7
GACCAAUCUGCCCUCAGAGCUCGAGAACACCUUCGGAUGCAUAGGAGGCAGGCUUCGGUAGCGCGAUAGCGCCAACGUCCUCAACCUCCAAUGCAUCCCACCACAUGAUGAUGCCUGAAGAGCCUUGGUUUUUUG [U30C G42U G60A] | -5.14
GACCAAUCUCCCCUCAGAGCUCGAGAACACCUUCGGAUGCAGAGGAGGCAGGCUUCGGUGGCGCGAUAGCACCAACGUCCUCAACCUCCAAUGCAUCCCACCACAUGAUGAUGCCUAAAGAGCCUUGGUUUUUUG [G10C U30C G71A G117A] | -5.64
GACCAAUCUGCCCUCAGAGCACGAGAACAUCUUCGGAUGCAGAGGAGGCAGGCUUCGGUGGCGCGAUAGCGCCAACGUCCUCAACCACCAAUGCAUCCCACCACAUGAUGAUGCCUGAAGAGCCUUGGUUUUUUG [U21A U87A] | 0.177
GACCAAUCUGCCCUCAGAGCUCGAGAACAUCUUCGGAUGCAGAGGAGGCAGGCUUCGGUGGCGCGAUAACGCCAACGUCCUCAAACUCCAAUGCAUCCCACCACAAGAUGAUGCCUGAAGAGCCAUGGUUUUUUG [G69A C85A U106A U125A] | -5.49
GACCAAUCUGCCCUCAGAGCUAGAGAACAUCUUCGGAUGCAGAGGAGGCAGGCUGCGGUGGCGCGAUAGCGCCAACGUCCUCAACCUCCAAUGCAUCCCACCACAUGAUGAUGCCUGAAGAGCCUUGGUUUUUUG [C22A U55G] | -4.85
GACCAAUCUGCCCUCAGAGCUCGAGAACAUCCUCGGAUGCAGAGGAGGCAGGCUUCGGUGGUGCGAUAGCGCUAACGUCCUCAAUCUCCAAUGCAUCUCACCACAUGAUGAUGCCUGAAGAGCCUUGGUUUUUUG [U32C C62U C73U C85U C98U] | -4.16
GACCAAUCUACCCUCAGAGCUCGAGAACAUCUUCGGAUGCAGAGGAGGCAGGCUUCGGUGGCGCGAUAGCGCCGACGUCCUCAACCUCCACUGCAUCCCACCACAUGAUGAUGCCUGAAGAGCGUUGGUUUUUUG [G10A A74G A91C C124G] | -0.108
GAUCAAUCUGCCCUCAGAGCUCGAGAACAUCUUCGGAUGCAGAGGAGGCAGGCUUCGGUGGGGCGAUAGCGCCAACGUCCUCAACCUCCAAUGCAUCCCACCACAUGAUGAUAGCUGAAGUGCCUUGGUUUUUUG [C3U C62G G113A C114G A121U] | -4.51
GACCAAUCUGCCCUCAGAGCUCGAGAACAUCUUCGGAUGCAGAGGAGGCAGGCUUCGGUGGCGCGAUAGCGCCAACGUCCUCAACCUCCAAUGCAUCCCACCACAUGAUGAUGCCUGAAGUGCCUUGGUUUUAUG [A121U U133A] | 1.83
GACCAAUCUGCACUCAGAGCUCGAGAACAUCUUCGGAUGCAGAGGAGGCAGGCUUCGGUGGCGUGAUAGCGCCAACGUCCUCAACCUCCAAUGCAUCCCACCACAUGAUGAUGCCUGAAGAGCCUUGGUUUUUUG [C12A C64U] | -0.93
GACCAUUCUGCCCUCAGAGCUCGAGAACAUCUUCGGAUGCUGAGGAGGCAGGCUUCGGUGAGGCGAUAGCGCCAACGUCCUCAACCUCCAAUGCAUCCCACCACAUGAUGAAGCCUGAAGAGCCUUGGUUUUUUG [A6U A41U G61A C62G U112A] | -6.58
GACCAAUCUGCCCUCAGAGCUCGGGAACAUCUUCGGAUGCAGAGCAGGCAGGCUUCGGUGGCGCGAUAGCGCCAACGUCCUCAACCUCCAAUGCAUCCCACCACAUGAUGAUGCCUGAAGAGCCUUGGUUUUUUG [A24G G45C] | -3.46
GACCAAUCUGCCCUCAGAGCUCGAGAACAUCUUCGGAUGCAGAGAAGGCAGGCUUAGGUGGCGCGAUAGCGCCAACGUCCUCAACCUCCAAUGCAUCCCACCACAUGAUGAUGCCUGAAGAGCCUUGGUUUUUUG [G45A C56A] | -0.425
GACCAAUCUGCCCUCAGAGCUCGAGAACAUCUUCAGAUGCAGAGGAGGCAGGCUUCGGUGGCGCGAUAGCGCGAACGUCAUCAACCUCCAAUGCAUCCCACCACAUGAUGAUGCCUGAAGGGCCUUGGUUUUUUG [G35A C73G C80A A121G] | -6.83
GACCAAUGUGCCCUCAGAGCUCGAGAACAUCUUCGGAUGCAGAGGAGGCAGGCUUCGGUGGCUCGAUAGCGCCAACGUCCUCAACCUCCAAUGCAUCCCACCACAUGAUGAUGCCUGAAGAGCCUUGGUUUUUUG [C8G G63U] | -0.674
GACCAAUCUGCCCUCAGAGCUCGAGAACAUCUUCGGAUGCAGAGGAGGCAGGCUUCGGUGGCGCGGUAGCGCCAACGUCCUCAACCUCCAAUGCAUCCCACCACAUGAUGAUGCCUGAAGAGCGUUGGUUUUUUG [A66G C124G] | 1.19
GACCAAUCCGCCCUCAGAGCUCGAGAACAUCUUCGGAUGCAGAGGAGGCAGGCUUCGGUGGCGAGAUAGCGCCUACGUCCUCAACCUCCAAUGCAUCCCACCACAUGAUGAGGCCUGAAGAGCCUUGGUUUUUUG [U9C C64A A74U U112G] | -6.76
GACCAAUCUGCCUUCAGCGCUCGAGAACAUCUUCGGAUGCAGAGGAGGCAGGCUGCGGUGGCGCGAUAGCGCCAACGUCCUCAACCUCCAAUUCAUCCCACCACAUGAUGAUGCCUGAAGAGCCUUGGUUUUUUG [C13U A18C U55G G93U] | -2.65
